The record followed here is patent publication US20140295512A1, “Ketol-Acid Reductoisomerases With Improved Performance Properties” (CALIFORNIA INSTITUTE OF TECHNOLOGY, priority 2011, published 2014).

As a reminder, the Km is the concentration of substrate that gives half-maximal velocity.

Common to all, as to type: biochemical
The nature of data set [1]: KARI enzyme assay on cell lysates with NADH and NADPH as cofactors. The conditions noted are these: for NADH-Dependent Specific Activity: empty vector control subtracted. Here is the method: In this example, different KARI enzymes (Table 7) were screened for their activity with NADH and NADPH as cofactor. The enzymes were expressed in an S. cerevisiae strain by means of 2 micron plasmids carrying the KARI genes under the control of the S. cerevisiae TDH3 promoter. The transformants were cultivated in shake flask fermentations as described below and samples were taken after 44 h, centrifuged at 4000×g for 10 mins at 4° C. and the cell pellets were stored at −80° C. until analysis. The pellets were lysed by bead beating and the lysates were analyzed by KARI activity assay as described below using NADH and NADPH as cofactors.
Patched cells (or single colonies) grown on YPD+G418 plates at 30° C. were mixed into 3 mL YP+12% dextrose+200 mM MES, pH 6.5+G418, in 14 mL culture tubes and incubated at 250 RPM, 30° C. for ˜24 hours. The cells from the cultures were used to inoculate YP+12% dextrose+200 mM MES, pH 6.5+G418, in non-baffled flasks with a vented grey screw-caps at OD600 0.01. The cultures were incubated at 250 RPM, 30° C. for 24 hours, diluted 1:3 and incubated for another 20 h at 250 RPM, 30° C. Samples for enzyme assay pellets and protein quantification pellets were taken from each shake flask, and cell-free supernatant was used to measure glucose levels in shake flasks.
The assay and no substrate control reactions were performed in triplicate for each sample. The following stock solutions were prepared: 1 M potassium phosphate, pH 7, 0.1 M MgCl2, 100 mM DTT, 25 mM NADH or NADPH, 200 mM 2-acetolactate. The 2-acetolactate was made fresh each time by mixing 50 μL Ethyl-2-acetoxy-2-methylacetoacetate (EAMAA) with 990 μL water. Gradually 260 μL of 2 N NaOH was added in 10 μL increments to the EAMAA water mixture. After each addition the sample was vortexed for 15 seconds, and the procedure repeated until the entire 260 μL of 2 N NaOH was added. Afterwards the solution was mixed on an orbital shaker for 20 min (Krampitz, 1957). KARI reaction buffer (100 μL per reaction) was prepared to the following concentrations: 250 mM potassium phosphate, pH 7, 10 mM MgCl2, 1 mM DTT, 0.2 mM NADH or NADPH, 10 mM 2-acetolactate. For the no substrate controls, the 2-acetolactate was substituted with water. 10 μL of each lysate were transferred into a 96 well half area assay plate. The reaction was started with 90 μL of reaction buffer to each well using a multichannel pipette. The samples were mixed immediately. The samples were read at 340 nm every 10 s for 5 min.

Data set [2] in a line: KARI assay in 1-mL scale to measure NADH KM value (Example 5). The conditions noted are these: for Km: Example 5, pH 7.0. Here is the method:
KARI activity was assayed kinetically by monitoring the decrease in NADPH or NADH concentration by measuring the change in absorbance at 340 nm. An assay buffer was prepared containing 100 mM potassium phosphate pH 7.0, 1 mM DTT, 2.5 mM (S)-2-acetolactate, and 10 mM MgCl2 (final concentrations in the 1-mL assay). Twenty μL purified enzyme and 960 μL of the assay buffer were placed into a 1-mL cuvette. The reaction was initiated by addition of 20 μL NADPH or NADH (200 μM final concentration) for a general activity assay. Michaelis-Menten constants for the cofactors were determined with varying concentrations of NADPH or NADH (200-12 μM final).

A short description of data set [3]: KARI assay in 100-μL scale to measure acetolactate KM value. The conditions noted are these: for Km: NADPH, pH 7.0, read-out: KM (S)-2-acetolactate. As to the method:
An assay buffer was prepared containing 100 mM potassium phosphate pH 7.0, 1 mM DTT, 10 mM MgCl2, and 200 μM NADPH (final concentrations). Five μL purified enzyme and 5 μL of varying concentrations of acetolactate (8-0.125 mM final) were placed into a flat-bottom assay plate (Evergreen Scientific). The reactions were initiated by addition of 90 μL assay buffer. The change in absorbance at 340 nm was monitored over 1 min in a plate reader (TECAN).

Data set [4] can be described thus: KARI assay in 100-μL scale to measure MgCl2 KM value. The note with it: for Km: NADPH, pH 7.0, read-out: KM Mg^2+. As to the method: An assay buffer was prepared containing 100 mM potassium phosphate pH 7.0, 1 mM DTT, 2.5 mM (S)-2-acetolactate, and 200 μM NADPH (final concentrations). Five μL purified enzyme and 5 μL of varying concentrations of MgCl2 were placed into a flat-bottom assay plate (Evergreen Scientific). The reactions were initiated by addition of 90 μL assay buffer. The change in absorbance at 340 nm was monitored over 1 min in a plate reader (TECAN).

B1: Se1_KARI: Slackia exigua (ATCC 700122) ketol-acid reductoisomerase, wild type, SEQ ID NO: 2 (protein, listed as Slackia exigua)
chain: MSVKTKEKEMAVTILYEQDVDPKVIQGLKVGIIGYGSQGHAHALNLMDSGVDVRVGLREGSSSWKTAEEAGLKVTDMDTAAEEADVIMVLVPDEIQPKVYQEHIAAHLKAGNTLAFAHGFNIHYGYIVPPEDVNVIMCAPKGPGHIVRRQFTEGSGVPDLACVQQDATGNAWDIVLSYCWGVGGARSGIIKATFAEETEEDLFGEQAVLCGGLVELVKAGFETLTEAGYPPELAYFECYHEMKMIVDLMYESGIHFMNYSISNTAEYGEYYAGPKVINEQSREAMKEILKRIQDGSFAQEFVDDCNNGHKRLLEQREAINTHPIETTGAQIRSMFSWIKKED
Turning to B1, in data set [1], the “Specific Activity with NADH/Specific Activity with NADPH” value was 0.96. Further, in data set [1], the “NADH-Dependent Specific Activity” value was 0.059 U/mg lysate. For the same molecule, the “kcat with NADH” value in data set [2] (Example 5) amounted to 0.4 s⁻¹. The values for the Km in data set [2], in data set [3] and in data set [4] were 45 ± 10 µM, 170 µM and 700 µM, respectively. The “KM, fold lower than the Ki for R-DHIV” value in data set [3] is 10 fold.

B2: E. coli IlvC: Escherichia coli ketol-acid reductoisomerase (ilvC), wild type (protein, UniProt P05793 2-491, looked up)
Ketol-acid reductoisomerase …: ANYFNTLNLRQQLAQLGKCRFMGRDEFADGASYLQGKKVVIVGCGAQGLNQGLNMRDSGLDISYALRKEAIAEKRASWRKATENGFKVGTYEELIPQADLVINLTPDKQHSDVVRTVQPLMKDGAALGYSHGFNIVEVGEQIRKDITVVMVAPKCPGTEVREEYKRGFGVPTLIAVHPENDPKGEGMAIAKAWAAATGGHRAGVLESSFVAEVKSDLMGEQTILCGMLQAGSLLCFDKLVEEGTDPAYAEKLIQFGWETITEALKQGGITLMMDRLSNPAKLRAYALSEQLKEIMAPLFQKHMDDIISGEFSSGMMADWANDDKKLLTWREETGKTAFETAPQYEGKIGEQEYFDKGVLMIAMVKAGVELAFETMVDSGIIEESAYYESLHELPLIANTIARKRLYEMNVVISDTAEYGNYLFSYACVPLLKPFMAELQPGDLGKAIPEGAVDNGQLRDVNEAIRSHAIEQVGKKLRGYMTDMKRIAVAG
Regarding B2, in data set [1], the “Specific Activity with NADH/Specific Activity with NADPH” value was 0.175 and the “NADH-Dependent Specific Activity” value is 0.04 U/mg lysate. In addition, in data set [2], the “NADH KM, times higher than NADH KM for S. exigua KARI” value is 22 fold and the Km came to 1000 µM. Also, the Km in data set [2] (listed as E. coli KARI) is about 1000 µM. In data set [3], the “KM for acetolactate, times higher than KM of S. exigua KARI” value came out at 32 fold; the “KM, fold higher than the Ki for R-DHIV” value was found to be 3 fold; the Km is 300 ± 100 µM. Further, in data set [4], the “KM for Mg^2+, times higher than KM of S. exigua KARI” value amounted to 2.9 fold and the Michaelis constant (Km) is 2000 ± 500 µM.
